Where no end group is shown, it is not given here. [ ]: non-standard residue; d: D form. pT = C[C@@H](OP(=O)(O)O)[C@H](N)C(=O)O
B1: synthetic phosphopeptide tau 210-219/pT212/pT217 (peptide)
peptide: SR[pT]PSLP[pT]PP
B2: synthetic peptide tau 141-170 (peptide)
peptide: KAKGADGKTKIATPRGAAPPGQKGQANATR
B3: synthetic peptide tau 171-200 (peptide)
peptide: IPAKTPPAPKTPPSSGEPPKSGDRSGYSSP
B4: monoclonal antibody DC2E2 (antibody, V domains shown)
VH: EVQLQQSGAELVRPGALVKLSCKASGFNIKDYYMHWVRQRPDQGLEWIGWLDPENDHTIYDPRFQDRANLTADTSSNTAYLQLSSLTSEDTAVYYCSYYKYDDYWGQGTTLTVS
VL: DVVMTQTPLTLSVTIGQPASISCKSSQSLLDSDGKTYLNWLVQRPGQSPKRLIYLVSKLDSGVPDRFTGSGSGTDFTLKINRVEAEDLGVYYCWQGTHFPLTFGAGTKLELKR
notes: Used as hybridoma supernatant or Protein G purified; biotinylated as detector in the digital ELISA
B5: synthetic phosphopeptide tau 210-218/pT212/pT217 (peptide)
peptide: SR[pT]PSLP[pT]P
B6: antibody DC807 (antibody, V domains shown)
VH: EVKLVESGGGLVKPGGSLKLSCAASGFTFSNYAMSWVRQNPEKRLEWVASISSGGTIYSPDSVKGRFTISRDNGRNILYLQMSSLRSEDTAMYSCARVNYDYGYAMDYWGQGTSVTVS
VL: DAVMTQTPLSLPVSLGDQASISCRSSQSLENSNGNTYLNWYLQKPGQSPQLLIYRVSNRFSGVLDRFSGSGSGTDFTLKISRVEAEDLGVYFCLQVTHVPWTFGGGTKLEIKR
notes: Mouse monoclonal antibody
B7: antibody DC149 (antibody, V domains shown)
VH: DVQLVESGGGLVQPGGSRKLSCAASGFTLSSFGMHWVRQAPEKGLEWVAYISSGSSTIYYADTVKGRFTISRDNPKNILFLQMTSLRSEDTAIYYCSRRLDYWGQGTSVTVS
VL: DIVITQDELSNPVTSGESVSISCRSSKSLLYKDGKTYLNWFLQRPGQSPQLLIYLMSTRASGVSDRFSGSGSGTDFTLEISRVKAEDVGVYYCQQFVEYPLTFGTGTKLELQR
notes: Mouse monoclonal antibody
B8: synthetic peptide tau 181-210 (peptide)
peptide: TPPSSGEPPKSGDRSGYSSPGSPGTPGSRS
B9: synthetic phosphopeptide tau 210-220/pT212/pT217 (peptide)
peptide: SR[pT]PSLP[pT]PPT
B10: synthetic peptide tau 161-190 (peptide)
peptide: GQKGQANATRIPAKTPPAPKTPPSSGEPPK

Columns and labels:
[1] = molecular target: T1, monoclonal antibody DC2E7; test: competition ELISA, peptide pre-incubated with DC2E7
T1 construct: also called DC217 (apparent misprint)
T1 sequence (VL, as listed by the source): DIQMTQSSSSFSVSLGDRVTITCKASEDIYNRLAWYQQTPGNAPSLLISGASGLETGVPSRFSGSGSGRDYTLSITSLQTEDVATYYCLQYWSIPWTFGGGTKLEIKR
Method: In order to examine the effect of residues in the region of DC2E7 epitope on antibody binding, synthetic peptides of different lengths carrying different phospho-sites were analyzed in competitive ELISA. […] Each synthetized peptide contained phospho-site(s) located around the residue Thr217, except of unphosphorylated peptide tau 201-229 (used as negative control).
ELISA plates (Nunc Medisorp, Thermo Scientific, Denmark) were coated overnight at 37° C. with 50 μl/well of PHF-tau, diluted 200× in PBS. The coated plates were washed 5 times with PBS/Tween 20 (0.05% v/v), and blocked with PBS/Tween 20 for 1 h at 25° C. Each of the peptides was separately dissolved in PBS at a final concentration of 1 mM. Serial dilutions (2.5×) of peptides in PBS/Tween 20 were prepared in polypropylene microtiter plates with conical well bottom (Greiner) within the concentration range of 200 μM; 80 μM; 32 μM; 12.8 μM; 5.12 μM; 2.048 μM; 0.8192 μM; 0.32768 μM). The monoclonal antibody DC2E7 was diluted to a concentration of 0.6 μg/ml in PBS and 60 μl of this diluted antibody was added into each well to serial dilution of peptides resulting in 120 μl/well of mixture. The antibody/peptide mixtures were incubated for 1 hr at 25° C. on a rotating platform set to 230 rpm.

[2] = molecular target: B4; test: competition ELISA, peptide pre-incubated with DC2E2, plates coated with tau 1-242
Method: (§1) The plates were washed 4 times with PBS/Tween 20 (0.1% v/v), and blocked with PBS/Tween 20 for 2 h at 25° C. Peptides were separately dissolved in PBS at a final concentration of 5 mM. Serial dilutions (2,5-fold) of the peptides in PBS/Tween 20 were prepared in polypropylene plates with conical well bottom (Greiner, #651201) (concentration range 200 μM, 32 μM, 12.8 μM, 5.1 μM, 2 μM, 0.8 μM, and 0.3 μM). 60 μl of each dilution were added per well. Purified DC2E2 was diluted to a concentration of 0.6 μg/ml in PBS/Tween 20 and 60 μl of this diluted antibody was mixed with each serial dilution of peptides resulting in 120 μl mixtures with […] of antibody/60μl containing each respective test peptide at a concentration of 200 μM, 32 μM, 12.8 μM, 5.1 μM, 2 μM, 0.8 μM, and 0.3 μM. The antibody/peptide mixtures were incubated for 1 hr at 25° C. on a rotating platform set to 250 rpm. […] The plates were washed 4× times with PBS/Tween 20 and incubated for 1 hr at 25° C. on a rotating platform (set to 250 rpm) with 50 μl of Polyclonal Goat Anti-Mouse Immunoglobulins/HRP (Dako, #P0447) diluted 1:1000 in PBS/Tween 20. The plates were washed 4× times with PBS/Tween and then incubated with 50 μl/well of TMB one solution (Kem-En-Tec Diagnostics) as a peroxidase substrate. The reaction was stopped by adding 50 μl of 2 M H₂SO₄ (Merck). Absorbance was measured at 450 nm using a Powerwave HT (Bio-Tek).

[3] = molecular target: T2, in vitro phosphorylated human tau 2N4R (human, UniProt P10636 1-758, phosphorylated in vitro with rat brain kinase extract; the phosphorylated sites are not listed); test: immunoblot
T2 construct: also called phosphorylated tau 2N4R; 2N4R in vitro phosphorylated
T2 sequence (P10636 other isoform, or with tags, fused parts or gaps limits assumed): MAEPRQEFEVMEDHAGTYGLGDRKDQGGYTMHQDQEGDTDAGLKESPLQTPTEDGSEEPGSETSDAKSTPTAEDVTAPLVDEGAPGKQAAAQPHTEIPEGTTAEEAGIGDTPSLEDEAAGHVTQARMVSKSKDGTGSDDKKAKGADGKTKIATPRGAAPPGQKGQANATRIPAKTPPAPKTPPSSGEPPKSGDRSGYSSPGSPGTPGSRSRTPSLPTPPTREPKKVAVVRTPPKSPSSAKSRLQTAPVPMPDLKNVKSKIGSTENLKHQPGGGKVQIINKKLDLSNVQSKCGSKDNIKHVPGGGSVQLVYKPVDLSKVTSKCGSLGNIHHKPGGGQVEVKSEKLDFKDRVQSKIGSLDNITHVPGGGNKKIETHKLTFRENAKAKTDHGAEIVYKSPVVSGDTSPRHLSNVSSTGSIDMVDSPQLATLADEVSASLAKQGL
Method: (§2) Adult rat brain (1 g/2.5 ml) was homogenized in kinase buffer (10 mM TRIS-HCl, pH 7.4; 5 mM EGTA, 2 mM DTT; 1 mM PMSF; 2 mM MgCl₂, leupeptin ([…]), pepstatin ([…]), aprotinin ([…])) and after centrifugation at 100,000×g for 30 min at 4° C. the supernatant (kinase extract) was used for the phosphorylation of tau. The phosphorylation reaction was carried out at 37° C. in 10 mM TRIS-HCl, pH 7.4; 5 mM EGTA, 2 mM DTT; 1 mM PMSF; leupeptin (20 μg/ml); pepstatin (20 μg/ml); aprotinin (20μg/ml); 2 mM ATP; 2 mM MgCl₂ and 10 μM okadaic acid. The brain kinase extract (5μl) was added to 50 μl tau solution (1 μM) and reaction was incubated at 37° C. for 24 h. The phosphorylation of tau was analysed by SDS-PAGE and immunoblotting using rabbit anti-serum raised against six recombinant human tau isoforms (Csokova et al., Rapid purification of truncated tau proteins: model approach to purification of functionally active fragments of disordered proteins, implication for neurodegenerative diseases, Protein Expression and Purification, 35:366-372, 2004).
(§3) Soluble tau proteins were diluted with an equal volume of 2×SDS (sodium dodecylsulfate) sample loading buffer (with β-mercaptoethanol) (Laemmli, 1970) and 250 ng of proteins were loaded per lane. […]

[4] = molecular target: in vitro phosphorylated tau151-391 (human, UniProt P10636 468-708, phosphorylated in vitro with rat brain kinase extract; the phosphorylated sites are not listed); test: immunoblot
in vitro phosphorylated tau151-391, sequence (P10636 468-708 I625L): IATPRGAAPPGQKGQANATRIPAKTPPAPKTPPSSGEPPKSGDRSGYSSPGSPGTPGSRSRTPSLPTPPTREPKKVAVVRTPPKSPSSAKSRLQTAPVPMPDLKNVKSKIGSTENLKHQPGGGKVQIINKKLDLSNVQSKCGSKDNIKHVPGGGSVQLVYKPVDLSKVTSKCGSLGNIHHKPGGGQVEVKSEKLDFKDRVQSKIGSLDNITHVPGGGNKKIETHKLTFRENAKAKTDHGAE
Method: as §2, §3

[5] = molecular target: T3, recombinant tau deletion mutant tau 1-242 (human, UniProt P10636 1-559); test: hybridoma screening ELISA on coated tau 1-242
T3 construct: Numbered on tau 2N4R; It was the immunogen for DC2E2
T3 sequence (P10636 other isoform, or with tags, fused parts or gaps mutant): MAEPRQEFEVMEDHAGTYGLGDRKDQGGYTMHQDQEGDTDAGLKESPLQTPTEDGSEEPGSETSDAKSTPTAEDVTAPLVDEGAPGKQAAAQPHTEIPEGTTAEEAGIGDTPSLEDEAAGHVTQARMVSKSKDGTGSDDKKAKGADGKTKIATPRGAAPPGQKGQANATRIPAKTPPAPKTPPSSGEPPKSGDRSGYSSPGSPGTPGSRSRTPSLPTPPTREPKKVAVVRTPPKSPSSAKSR
Method: The plates were blocked with 1% nonfat dried milk to reduce nonspecific binding, washed with PBS-0.05% Tween 20, and incubated with 50 μl/well of hybridoma culture supernatant for 1 hr at 37° C. Bound monoclonal antibodies were detected with sheep anti-mouse immunoglobulin (Ig) conjugated with horse radish peroxidase (HRP, DAKO). The reaction was developed with TMB one (Kem-En-Tec Diagnostics) as a peroxidase substrate and stopped with 50 μl of 2 M H₂SO₄. Absorbance at 450 nm was measured using a Powerwave HT (Bio-Tek). Readouts with an absorbance value of at least twice the value of the negative controls (PBS) were considered positive. Positive hybridoma cultures were further subcloned in soft agar according to the procedure described in Kontsekova et al., One-step method for establishing 8-azaguanine-resistant hybridomas suitable for preparation of triomas, J. Immunol. Methods, 145, 247-250 (1991).

[6] = molecular target: T4, recombinant human tau isoform 2N3R (human, UniProt P10636-5 2-410); test: ELISA, coated recombinant tau protein, hybridoma supernatant
T4 construct: mature
T4 sequence (P10636 other isoform, or with tags, fused parts or gaps): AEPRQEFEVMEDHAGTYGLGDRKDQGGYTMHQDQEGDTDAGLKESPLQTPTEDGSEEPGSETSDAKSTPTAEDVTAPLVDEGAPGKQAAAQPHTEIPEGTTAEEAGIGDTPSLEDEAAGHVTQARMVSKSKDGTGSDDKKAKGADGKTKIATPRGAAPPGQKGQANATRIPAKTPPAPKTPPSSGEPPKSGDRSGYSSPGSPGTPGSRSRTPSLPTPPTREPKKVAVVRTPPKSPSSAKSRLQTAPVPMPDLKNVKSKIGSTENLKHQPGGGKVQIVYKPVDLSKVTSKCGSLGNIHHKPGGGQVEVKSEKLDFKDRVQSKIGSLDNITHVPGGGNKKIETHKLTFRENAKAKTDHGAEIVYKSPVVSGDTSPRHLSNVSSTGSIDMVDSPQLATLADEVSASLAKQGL
Method: (§4) Deletion mutants of human tau protein 2N4R were used for epitope mapping of DC2E2 using ELISA (FIG. 2A). Recombinant human tau isoforms 2N4R, 1N4R, 2N3R, 0N4R, 1N3R, 0N3R and tau deletion mutants were prepared as described in Example 1. Microtiter plates were coated overnight at 37° C. with recombinant tau proteins ([…] in PBS, 50 μl/well). The plates were blocked with PBS-Tween20 (0.1% v/v) to reduce nonspecific binding and were incubated with 50 μl/well of DC2E2 hybridoma culture supernatant, for 1 hr at 37° C. Bound monoclonal antibody was detected with sheep anti-mouse Ig HRP-conjugated (DAKO). The reaction was developed with TMB one solution (Kem-En-Tec Diagnostics) as a peroxidase substrate and stopped with 50 μl of 2M H₂SO₄. Absorbance was measured at 450 nm using a Powerwave HT (Bio-Tek). Readouts with an absorbance value of at least twice the value of the negative controls (PBS) were considered positive.

[7] = molecular target: T5, recombinant human tau isoform 0N4R (human, UniProt P10636-6 2-383); test: as above
T5 construct: mature
T5 sequence (P10636 other isoform, or with tags, fused parts or gaps): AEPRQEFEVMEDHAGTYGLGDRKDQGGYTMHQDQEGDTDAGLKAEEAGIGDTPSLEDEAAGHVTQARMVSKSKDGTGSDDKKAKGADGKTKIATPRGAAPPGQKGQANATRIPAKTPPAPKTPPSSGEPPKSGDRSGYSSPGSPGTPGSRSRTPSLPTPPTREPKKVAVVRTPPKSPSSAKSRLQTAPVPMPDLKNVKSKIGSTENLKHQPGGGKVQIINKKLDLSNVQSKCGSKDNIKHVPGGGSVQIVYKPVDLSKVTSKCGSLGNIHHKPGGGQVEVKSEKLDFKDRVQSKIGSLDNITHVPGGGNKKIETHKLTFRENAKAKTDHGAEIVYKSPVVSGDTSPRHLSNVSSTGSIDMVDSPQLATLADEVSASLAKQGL
Method: as §4

[8] = molecular target: T6, recombinant human tau isoform 1N3R (human, UniProt P10636-4 2-381); test: as above
T6 construct: mature
T6 sequence (P10636 other isoform, or with tags, fused parts or gaps): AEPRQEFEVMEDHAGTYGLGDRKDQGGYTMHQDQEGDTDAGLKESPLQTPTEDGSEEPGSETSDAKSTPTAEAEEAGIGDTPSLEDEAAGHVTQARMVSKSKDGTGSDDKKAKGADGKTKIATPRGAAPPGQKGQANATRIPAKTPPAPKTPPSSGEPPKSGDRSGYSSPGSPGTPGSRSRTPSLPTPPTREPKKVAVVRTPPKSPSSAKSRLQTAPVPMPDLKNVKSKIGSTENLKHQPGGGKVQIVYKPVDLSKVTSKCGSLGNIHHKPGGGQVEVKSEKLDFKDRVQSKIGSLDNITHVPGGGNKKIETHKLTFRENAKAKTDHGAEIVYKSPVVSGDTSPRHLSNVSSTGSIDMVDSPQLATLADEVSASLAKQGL
Method: as §4

[9] = molecular target: T7, recombinant human tau isoform 0N3R (human, UniProt P10636-2 2-352); test: as above
T7 construct: mature
T7 sequence (P10636 other isoform, or with tags, fused parts or gaps): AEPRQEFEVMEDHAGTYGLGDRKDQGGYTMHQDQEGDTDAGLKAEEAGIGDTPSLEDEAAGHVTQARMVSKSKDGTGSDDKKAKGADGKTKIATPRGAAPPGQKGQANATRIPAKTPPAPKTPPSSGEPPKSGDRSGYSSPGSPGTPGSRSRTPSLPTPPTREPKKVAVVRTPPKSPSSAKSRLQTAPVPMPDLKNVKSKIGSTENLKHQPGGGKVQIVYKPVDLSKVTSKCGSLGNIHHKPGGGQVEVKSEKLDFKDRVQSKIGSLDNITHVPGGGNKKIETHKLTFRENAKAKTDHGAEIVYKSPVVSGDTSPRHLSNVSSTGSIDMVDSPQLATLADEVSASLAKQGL
Method: as §4

[10] = molecular target: recombinant tau deletion mutant tau 31-441 (human, UniProt P10636 31-758); test: as above
recombinant tau deletion mutant tau 31-441, sequence (P10636 other isoform, or with tags, fused parts or gaps mutant): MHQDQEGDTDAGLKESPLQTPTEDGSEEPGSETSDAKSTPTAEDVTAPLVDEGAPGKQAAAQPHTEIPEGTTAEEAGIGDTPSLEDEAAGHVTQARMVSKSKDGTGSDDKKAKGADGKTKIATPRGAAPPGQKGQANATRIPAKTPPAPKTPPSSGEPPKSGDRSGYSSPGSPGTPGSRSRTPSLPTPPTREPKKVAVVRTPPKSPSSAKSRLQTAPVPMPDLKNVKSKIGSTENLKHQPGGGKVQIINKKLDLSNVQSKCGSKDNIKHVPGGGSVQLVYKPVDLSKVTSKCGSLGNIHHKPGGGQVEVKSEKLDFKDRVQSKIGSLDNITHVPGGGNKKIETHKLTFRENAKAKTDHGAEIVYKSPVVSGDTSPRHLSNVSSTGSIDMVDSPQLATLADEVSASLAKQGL
Method: as §4

[11] = molecular target: recombinant tau deletion mutant tau 99-441 (human, UniProt P10636 99-758); test: as above
Method: as §4

[12] = molecular target: recombinant tau deletion mutant tau 1-226 (human, UniProt P10636 1-543); test: as above
Method: as §4

[13] = molecular target: recombinant truncated tau151-391 (unphosphorylated) (human, UniProt P10636 468-708); test: as above
recombinant truncated tau151-391 (unphosphorylated), sequence (P10636 468-708 I625L): as the sequence (P10636 468-708 I625L) above
Method: as §4

[14] = molecular target: recombinant tau deletion mutant tau 127-441 (human, UniProt P10636 378-758); test: as above
recombinant tau deletion mutant tau 127-441, sequence (P10636 other isoform, or with tags, fused parts or gaps mutant): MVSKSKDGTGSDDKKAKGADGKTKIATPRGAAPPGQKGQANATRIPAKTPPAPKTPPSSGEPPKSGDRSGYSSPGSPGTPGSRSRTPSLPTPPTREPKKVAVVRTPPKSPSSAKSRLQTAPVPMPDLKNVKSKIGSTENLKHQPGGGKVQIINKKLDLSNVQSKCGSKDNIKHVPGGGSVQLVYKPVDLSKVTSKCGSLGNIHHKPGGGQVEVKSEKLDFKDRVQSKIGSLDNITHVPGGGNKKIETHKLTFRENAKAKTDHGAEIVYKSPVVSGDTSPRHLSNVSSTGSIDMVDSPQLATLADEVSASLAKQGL
Method: as §4

[15] = molecular target: T8, recombinant human tau isoform 1N4R (human, UniProt P10636-7 2-412); test: as above
T8 construct: mature
T8 sequence (P10636 other isoform, or with tags, fused parts or gaps): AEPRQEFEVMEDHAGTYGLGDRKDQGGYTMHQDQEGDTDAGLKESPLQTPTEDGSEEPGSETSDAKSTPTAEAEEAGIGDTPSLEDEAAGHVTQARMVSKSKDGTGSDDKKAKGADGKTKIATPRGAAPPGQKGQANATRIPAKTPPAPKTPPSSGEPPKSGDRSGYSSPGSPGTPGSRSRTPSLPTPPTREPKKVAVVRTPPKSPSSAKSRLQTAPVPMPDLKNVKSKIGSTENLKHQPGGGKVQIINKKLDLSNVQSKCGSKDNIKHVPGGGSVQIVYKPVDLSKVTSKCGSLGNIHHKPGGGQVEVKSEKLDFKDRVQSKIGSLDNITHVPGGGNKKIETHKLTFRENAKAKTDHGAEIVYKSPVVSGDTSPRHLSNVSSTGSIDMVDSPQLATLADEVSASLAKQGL
Method: as §4

[16] = molecular target: recombinant tau deletion mutant tau 1-136 (human, UniProt P10636 1-387); test: ELISA, coated recombinant tau proteins, DC2E2 hybridoma supernatant
recombinant tau deletion mutant tau 1-136, sequence (P10636 other isoform, or with tags, fused parts or gaps mutant): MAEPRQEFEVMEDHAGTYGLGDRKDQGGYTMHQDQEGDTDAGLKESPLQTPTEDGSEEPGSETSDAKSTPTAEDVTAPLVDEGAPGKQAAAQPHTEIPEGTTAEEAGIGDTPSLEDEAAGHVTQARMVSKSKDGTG
Method: as §4

[17] = molecular target: recombinant tau deletion mutant tau 221-441 (unphosphorylated) (human, UniProt P10636 538-758); test: as above
Method: as §4

[18] = molecular target: T9, recombinant tau deletion mutant tau2N4RΔ(134-168) (human, UniProt P10636 1-758); test: as above
T9 construct: Tau 2N4R with residues 134-168 deleted; also called tau 2N4R(A134-168)
Method: as §4

[19] = molecular target: unphosphorylated tau protein (UniProt P10636-8 1-441, limits assumed); test: ELISA
unphosphorylated tau protein, sequence (P10636 other isoform, or with tags, fused parts or gaps limits assumed): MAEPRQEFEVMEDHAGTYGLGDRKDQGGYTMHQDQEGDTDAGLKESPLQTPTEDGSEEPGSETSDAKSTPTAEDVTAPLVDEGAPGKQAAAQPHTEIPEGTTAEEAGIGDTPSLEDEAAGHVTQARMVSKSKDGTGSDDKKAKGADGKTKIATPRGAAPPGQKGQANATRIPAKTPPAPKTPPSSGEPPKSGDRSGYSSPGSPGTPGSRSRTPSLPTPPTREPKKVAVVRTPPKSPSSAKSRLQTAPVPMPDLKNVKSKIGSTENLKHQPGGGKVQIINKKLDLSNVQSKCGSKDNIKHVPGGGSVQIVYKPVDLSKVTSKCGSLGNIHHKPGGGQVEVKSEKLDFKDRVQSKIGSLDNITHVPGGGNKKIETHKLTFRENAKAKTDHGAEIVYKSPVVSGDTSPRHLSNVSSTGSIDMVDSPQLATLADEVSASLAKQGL

[20] = molecular target: B4; test: competition ELISA, peptide 0.3-200 µM pre-incubated with DC2E2, plates coated with tau 1-242
Method: as §1

B1
binding result [1]: no binding (tested: peptide up to 200 µM)

B2
binding result [2]: no binding (tested: peptide up to 200 µM)

B3
binding result [2]: no binding (tested: peptide up to 200 µM)

B4
binding result [3]: binds
binding result [4]: binds
binding result [5]: binds
binding result [6]: binds
binding result [7]: binds
binding result [8]: binds
binding result [9]: binds
binding result [10]: binds
binding result [11]: binds
binding result [12]: binds
binding result [13]: binds
binding result [14]: binds
binding result [15]: binds
binding result [16]: no binding
binding result [17]: no binding
binding result [18]: no binding

B5
binding result [1]: no binding (tested: peptide up to 200 µM)

B6
binding result [19]: no binding

B7
binding result [19]: no binding

B8
binding result [2]: no binding (tested: peptide up to 200 µM)

B9
binding result [1]: no binding (tested: peptide up to 200 µM)

B10
binding result [20]: binds
